These are literature values, as cited in publication PMC4618378.

In general, Ki refers to a dissociation constant, usually derived from enzyme kinetics or from competition with a known ligand.

For data set [1], the target named is cone PDE6 gamma-subunit (Homo sapiens) (UniProt Q13956).
Data set [2] concerns the target rod PDE6 gamma-subunit (Homo sapiens) (UniProt P18545).
Chain of UniProt P18545 (P18545 whole entry): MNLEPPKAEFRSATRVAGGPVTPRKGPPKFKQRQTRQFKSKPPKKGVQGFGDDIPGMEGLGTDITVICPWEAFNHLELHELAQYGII

Chain of UniProt Q13956 (Q13956 whole entry): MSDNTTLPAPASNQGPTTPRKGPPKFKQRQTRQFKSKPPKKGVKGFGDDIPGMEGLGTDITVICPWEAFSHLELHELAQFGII

On to PDE6C (from UniProt P51160), for which the Ki was 0.078 nM in data set [1] and 0.155 nM in data set [2].
